Data set [1] concerns the target T1, EhACK (Entamoeba histolytica acetate kinase) (Entamoeba histolytica, UniProt C4M1C3).
T1 construct: gene EHI_170010; recombinant, produced in E. coli YBS121 delta-ack delta-pta (pREP4)
T1 sequence (C4M1C3 1-392): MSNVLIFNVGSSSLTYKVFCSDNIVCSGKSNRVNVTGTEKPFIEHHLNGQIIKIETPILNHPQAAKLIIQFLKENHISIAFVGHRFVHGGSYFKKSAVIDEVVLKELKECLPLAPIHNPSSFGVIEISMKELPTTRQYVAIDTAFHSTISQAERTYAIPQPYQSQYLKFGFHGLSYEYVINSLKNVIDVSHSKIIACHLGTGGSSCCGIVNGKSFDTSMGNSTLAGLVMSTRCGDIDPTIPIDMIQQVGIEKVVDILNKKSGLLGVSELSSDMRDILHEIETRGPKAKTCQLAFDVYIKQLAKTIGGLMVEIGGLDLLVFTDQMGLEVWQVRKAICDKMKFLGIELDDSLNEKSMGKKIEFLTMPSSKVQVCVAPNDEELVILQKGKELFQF
Briefly: reverse modified hydroxamate assay ([…] nm). Format: biochemical. To be noted: read-out: ATP IC50 (mM) / Acetate-forming direction.

Data set [2] has as its target T2, EhACK (Entamoeba histolytica acetate kinase) (Entamoeba histolytica, UniProt C4M1C3, D272A/M324I/Q323G/R274A).
T2 construct: gene EHI_170010
Put plainly: biochemical.

Data set [3] has as its target T3, EhACK (Entamoeba histolytica acetate kinase) (Entamoeba histolytica, UniProt C4M1C3, M324A/Q323A).
T3 construct: gene EHI_170010
Briefly: biochemical.

Data set [4] concerns the target T4, EhACK (Entamoeba histolytica acetate kinase) (Entamoeba histolytica, UniProt C4M1C3, M324I/Q323G).
T4 construct: gene EHI_170010
Briefly: biochemical.

The target in data set [5] is T5, MtACK (Methanosarcina thermophila acetate kinase) (Methanosarcina thermophila, UniProt P38502, G331Q/I332M).
T5 construct: gene ackA; recombinant, produced in E. coli Rosetta2 (DE3) pLysS
T5 sequence (P38502 1-408 G331Q/I332M): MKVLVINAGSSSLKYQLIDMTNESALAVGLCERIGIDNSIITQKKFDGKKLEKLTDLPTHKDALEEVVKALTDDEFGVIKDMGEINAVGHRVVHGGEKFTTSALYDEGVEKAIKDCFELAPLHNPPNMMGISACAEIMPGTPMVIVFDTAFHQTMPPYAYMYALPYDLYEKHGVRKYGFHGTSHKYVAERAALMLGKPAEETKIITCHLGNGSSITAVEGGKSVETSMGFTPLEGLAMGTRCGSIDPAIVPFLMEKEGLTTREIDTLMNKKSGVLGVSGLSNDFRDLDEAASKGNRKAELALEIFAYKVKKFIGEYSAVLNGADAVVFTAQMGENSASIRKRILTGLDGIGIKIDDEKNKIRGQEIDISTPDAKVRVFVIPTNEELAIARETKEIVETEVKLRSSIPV
Briefly: hydroxamate assay ([…] nm). Format: biochemical. The following applies: acetyl phosphate-forming direction; MgATP, co-substrate acetate; 100 mM Tris pH 7.5, 600 mM hydroxylamine, 37 °C; apparent.

The target in data set [6] is T6, MtACK (Methanosarcina thermophila acetate kinase) (Methanosarcina thermophila, UniProt P38502).
T6 construct: gene ackA; recombinant, produced in E. coli Rosetta2 (DE3) pLysS
T6 sequence (P38502 1-408): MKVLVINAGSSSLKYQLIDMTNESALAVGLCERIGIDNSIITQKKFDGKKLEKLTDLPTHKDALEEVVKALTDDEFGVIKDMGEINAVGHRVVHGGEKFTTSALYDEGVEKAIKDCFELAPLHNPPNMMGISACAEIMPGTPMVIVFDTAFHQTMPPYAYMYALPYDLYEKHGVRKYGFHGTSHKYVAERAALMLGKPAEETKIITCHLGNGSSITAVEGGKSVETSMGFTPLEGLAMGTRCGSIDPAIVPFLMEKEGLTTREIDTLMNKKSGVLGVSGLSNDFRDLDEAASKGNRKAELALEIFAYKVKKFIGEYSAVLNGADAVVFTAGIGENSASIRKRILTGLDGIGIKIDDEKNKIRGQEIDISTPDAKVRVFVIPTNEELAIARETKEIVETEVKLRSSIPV
Briefly: hydroxamate assay ([…] nm). In kind it is biochemical. To be noted: acetyl phosphate-forming direction; MgATP, co-substrate acetate; 100 mM Tris pH 7.5, 600 mM hydroxylamine, 37 °C; apparent.

In data set [7] the target is T5, MtACK (Methanosarcina thermophila acetate kinase). Briefly: reverse modified hydroxamate assay ([…] nm). In kind it is biochemical. To be noted: read-out: ATP IC50 (mM) / Acetate-forming direction.
The target in data set [8] is T6, MtACK (Methanosarcina thermophila acetate kinase). Put plainly: reverse modified hydroxamate assay ([…] nm). Format: biochemical. The following applies: read-out: ATP IC50 (mM) / Acetate-forming direction.
Substrate in data set [9]: O=P(O)(O)O
Briefly: purified protein. The following applies: acetate-forming direction, co-substrate acetyl phosphate, 10 mM MgCl2, 100 mM Tris-HCl pH 7.0, 37 °C, apparent, pH 7.0.

Substrate in data set [10]: O=P(O)(O)OP(=O)(O)O
Put plainly: purified protein. To be noted: acetyl phosphate-forming direction, co-substrate acetate, 5 mM MgCl2, morpholinoethanesulfonic acid pH 5.5, 600 mM hydroxylamine, 45 °C, apparent.

Substrate in data set [11]: CC(=O)OP(=O)(O)O
Briefly: purified protein. To be noted: acetate-forming direction, apparent.

Substrate in data set [12]: Nc1ncnc2c1ncn2[C@@H]1O[C@H](COP(=O)(O)OP(=O)(O)O)[C@@H](O)[C@H]1O
Briefly: purified protein. To be noted: acetate-forming direction, MgADP, co-substrate acetyl phosphate, 100 mM Tris pH 7.5, 37 °C, apparent.

Substrate in data set [13]: CC(=O)O
Put plainly: purified protein. To be noted: acetyl phosphate-forming direction, co-substrate MgATP, 100 mM Tris pH 7.5, 600 mM hydroxylamine, 37 °C, apparent, pH 7.5.

[14] abbreviates: co-substrate Pi, 10 mM MgCl2, 100 mM Tris-HCl pH 7.0, 37 °C.
Where [15] appears, read: co-substrate MgADP, 100 mM Tris pH 7.5, 37 °C.

Consider 5 molecules from paper PMC5517563 (Scientific Reports, 2017).

Broadly, the Km is the concentration of substrate that gives half-maximal velocity. Usually kcat stands for the maximal rate divided by the concentration of active sites. A word on the kcat/Km: it is the turnover number divided by the Michaelis constant.

As for `Nc1ncnc2c1ncn2[C@@H]1O[C@H](COP(=O)(O)OP(=O)(O)OP(=O)(O)O)[C@@H](O)[C@H]1O` [ATP], the IC50 in data set [1] came out at 6.1 ± 0.05 mM; in data set [2], 2.4 ± 0.19 mM; in data set [3], 4.8 ± 0.09 mM; in data set [4] it was 4.2 ± 0.3 mM. Besides, the Michaelis constant (Km) worked out at 9400 ± 270 µM in data set [5] and 1700 ± 30 µM in [6].

In the case of `O=P(O)(O)OP(=O)(O)O` [PPi], the IC50 turned out to be 4 ± 0.28 mM in [7] and 3.3 ± 0.06 mM in data set [8].

B1: EhACK (Entamoeba histolytica acetate kinase) (Entamoeba histolytica HM-1:IMSS) (protein)
chain: MSNVLIFNVGSSSLTYKVFCSDNIVCSGKSNRVNVTGTEKPFIEHHLNGQIIKIETPILNHPQAAKLIIQFLKENHISIAFVGHRFVHGGSYFKKSAVIDEVVLKELKECLPLAPIHNPSSFGVIEISMKELPTTRQYVAIDTAFHSTISQAERTYAIPQPYQSQYLKFGFHGLSYEYVINSLKNVIDVSHSKIIACHLGTGGSSCCGIVNGKSFDTSMGNSTLAGLVMSTRCGDIDPTIPIDMIQQVGIEKVVDILNKKSGLLGVSELSSDMRDILHEIETRGPKAKTCQLAFDVYIKQLAKTIGGLMVEIGGLDLLVFTDQMGLEVWQVRKAICDKMKFLGIELDDSLNEKSMGKKIEFLTMPSSKVQVCVAPNDEELVILQKGKELFQF
Consider B1, for which the Michaelis-Menten constant (Km) in “purified protein [9]” was determined as 14000 ± 1200 µM; in the data set “purified protein [10]”, 2100 ± 330 µM; in the data set “purified protein [11]” (setting [14]), 570 ± 30 µM. For the same molecule, the results for the catalytic constant (kcat) in “purified protein [9]”, in the data set “purified protein [10]” and in “purified protein [11]” (setting [14]) were 196 s⁻¹, 0.9 ± 0.03 s⁻¹ and 266 ± 12 s⁻¹, respectively. In addition, the kcat/Km in the data set “purified protein [9]” was 14000 M⁻¹ s⁻¹; in “purified protein [10]” it was 440 ± 60 M⁻¹ s⁻¹; in the data set “purified protein [11]” (setting [14]) it was 467000 ± 44000 M⁻¹ s⁻¹.

B2: MtACK (Methanosarcina thermophila acetate kinase) (Methanosarcina thermophila) (protein)
chain: MKVLVINAGSSSLKYQLIDMTNESALAVGLCERIGIDNSIITQKKFDGKKLEKLTDLPTHKDALEEVVKALTDDEFGVIKDMGEINAVGHRVVHGGEKFTTSALYDEGVEKAIKDCFELAPLHNPPNMMGISACAEIMPGTPMVIVFDTAFHQTMPPYAYMYALPYDLYEKHGVRKYGFHGTSHKYVAERAALMLGKPAEETKIITCHLGNGSSITAVEGGKSVETSMGFTPLEGLAMGTRCGSIDPAIVPFLMEKEGLTTREIDTLMNKKSGVLGVSGLSNDFRDLDEAASKGNRKAELALEIFAYKVKKFIGEYSAVLNGADAVVFTAGIGENSASIRKRILTGLDGIGIKIDDEKNKIRGQEIDISTPDAKVRVFVIPTNEELAIARETKEIVETEVKLRSSIPV
Turning to B2, in “purified protein [12]”, the Km turned out to be 1800 ± 130 µM, the catalytic constant (kcat) stood at 1915 ± 15 s⁻¹ and the kcat/Km was 1.07e+06 ± 69000 M⁻¹ s⁻¹. Moreover, in the data set “purified protein [13]”, the Km came out at 20000 ± 300 µM, the kcat worked out at 789 s⁻¹ and the specificity constant (kcat/Km) amounted to 39000 M⁻¹ s⁻¹. Moreover, in the data set “purified protein [11]” (setting [15]), the Michaelis constant (Km) stood at 1200 ± 90 µM, the catalytic constant (kcat) worked out at 1550 ± 54 s⁻¹ and the kcat/Km came out at 1.29e+06 ± 56000 M⁻¹ s⁻¹.

B3: MtACK (Methanosarcina thermophila acetate kinase) (Methanosarcina thermophila; G331Q/I332M) (protein)
chain: MKVLVINAGSSSLKYQLIDMTNESALAVGLCERIGIDNSIITQKKFDGKKLEKLTDLPTHKDALEEVVKALTDDEFGVIKDMGEINAVGHRVVHGGEKFTTSALYDEGVEKAIKDCFELAPLHNPPNMMGISACAEIMPGTPMVIVFDTAFHQTMPPYAYMYALPYDLYEKHGVRKYGFHGTSHKYVAERAALMLGKPAEETKIITCHLGNGSSITAVEGGKSVETSMGFTPLEGLAMGTRCGSIDPAIVPFLMEKEGLTTREIDTLMNKKSGVLGVSGLSNDFRDLDEAASKGNRKAELALEIFAYKVKKFIGEYSAVLNGADAVVFTAQMGENSASIRKRILTGLDGIGIKIDDEKNKIRGQEIDISTPDAKVRVFVIPTNEELAIARETKEIVETEVKLRSSIPV
As to B3, in “purified protein [12]”, the Km turned out to be 5700 ± 560 µM, the turnover number (kcat) is 12 ± 0.5 s⁻¹ and the catalytic efficiency (kcat/Km) worked out at 2000 ± 140 M⁻¹ s⁻¹.
